Assay results as given in patent US20240301031A1 (JIANGSU HENGRUI PHARMACEUTICALS, published 2024).

Tests used:
[1] = molecular target: T1, human BAFF (10056-HNCH, Sino biological) (human, UniProt Q9Y275 134-285); test: ELISA, BAFF coated
T1 construct: Bought protein

[2] = molecular target: T2, human APRIL (5860-AP-010/CF, R&D Systems) (human, UniProt O75888 115-250, limits assumed); test: ELISA, APRIL coated
T2 construct: Bought protein
T2 sequence (looked up): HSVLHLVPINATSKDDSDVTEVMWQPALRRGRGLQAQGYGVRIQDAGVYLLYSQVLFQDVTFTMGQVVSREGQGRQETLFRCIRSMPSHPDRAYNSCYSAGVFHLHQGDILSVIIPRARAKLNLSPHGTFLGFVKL

[3] = molecular target: T3, IL-23 (R&D Systems, 1290-IL-010) (UniProt Q9NPF7 20-189; P29460 23-328); test: cell-based or functional assay
T3 sequence (looked up) 1: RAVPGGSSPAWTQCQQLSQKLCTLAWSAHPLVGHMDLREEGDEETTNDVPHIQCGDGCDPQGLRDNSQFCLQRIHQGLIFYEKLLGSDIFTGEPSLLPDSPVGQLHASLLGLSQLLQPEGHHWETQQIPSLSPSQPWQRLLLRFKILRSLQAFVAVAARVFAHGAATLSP
T3 sequence (looked up) 2: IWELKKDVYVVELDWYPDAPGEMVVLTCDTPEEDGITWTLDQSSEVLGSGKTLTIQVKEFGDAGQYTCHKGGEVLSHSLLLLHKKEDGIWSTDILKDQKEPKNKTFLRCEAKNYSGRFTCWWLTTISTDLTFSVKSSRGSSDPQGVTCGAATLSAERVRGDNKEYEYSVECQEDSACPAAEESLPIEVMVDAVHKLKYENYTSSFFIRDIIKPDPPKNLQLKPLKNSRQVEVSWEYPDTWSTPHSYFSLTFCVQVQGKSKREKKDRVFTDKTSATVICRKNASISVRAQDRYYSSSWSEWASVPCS

[4] = molecular target: T4, IL-12/23 p40 (Sino biological, 10052-H08H) (UniProt P29460 23-328); test: ELISA, IL-12/23 p40 coated, sample titrated
T4 construct: Bought protein
T4 sequence (looked up): T3 sequence (looked up) 2
Procedure: The binding activity of the antibodies or fusion proteins for BAFF, APRIL, and IL-12/23 p40 was assayed by the ELISA method (coating an antigen protein). The specific procedures were as follows:
A BAFF (Sino biological, 10056-HNCH), APRIL (R&D Systems, 5860-AP-010/CF), or IL-12/23 p40 (Sino biological, 10052-H08H) protein was diluted to 1 μg/mL with a PBS (BasalMedia, B320) buffer at pH 7.4, and added to a 96-well microplate (Corning, 3590) at 100 μL/well. The plate was incubated at 4° C. overnight. After the liquid was discarded, 300 μL of 5% skim milk (BD, 232100) diluted with PBS was added to each well for blocking, and the plate was incubated at 37° C. for 2 h. After the blocking was completed, the blocking solution was discarded, and the plate was washed 3 times with a PBST buffer (PBS at pH 7.4 containing 0.1% tween-20). 100 μL of test antibody or fusion protein solution diluted in a gradient was added to each well, and the plate was incubated at 37° C. for 1 h. After the incubation was completed, the plate was washed 3 times with PBST. […] The plate was washed 3 times with PBST. […] The plate was read for absorbance values at 450 nm on a microplate reader, the binding curves of the antibodies to an antigen were fitted with software, and the EC₅₀ values were calculated.

[5] = molecular target: T4, IL-12/23 p40 (Sino biological, …); test: competition ELISA: biotin-labeled p40 to coated IL-12Rβ1
Procedure: A receptor protein was diluted to 2 μg/mL with PBS at pH 7.4 (BasalMedia, B320) and added to a 96-well microplate (Corning, 3590) at 100 μL/well. The plate was incubated at 4° C. overnight. After the liquid was discarded, 200 μL of 1% Casein blocking solution (Thermo, 37528) was added to each well for blocking, and the plate was incubated at 37° C. for 2 h. After the blocking was completed, the blocking solution was discarded, and the plate was washed 3 times with a PBST buffer (PBS at pH 7.4 containing 0.1% tween-20) for later use. A biotin-labeled ligand protein at a fixed concentration was mixed with the antibody or fusion protein diluted in gradient, pre-incubated at 37° C. for 30 min, and added to a blocked microplate. The plate was incubated at 37° C. for 1.5 h. After the incubation was completed, the plate was washed 3 times with PBST. 100 μL of streptavidin-HRP (Invitrogen, 434323, diluted at a ratio of 1:4000) was added to each well, and the plate was incubated at 37° C. for 1 h. The supernatant was removed, and the plate was washed 3 times with PBST. […] The plate was read for absorbance values at 450 nm on a microplate reader, the curves for the inhibition of the binding of the ligands to the receptors were fitted with software, and the IC₅₀ values were calculated. […]

[6] = molecular target: T5, human IL-23 (CT048-H08H, Sino biological) (human, UniProt Q9NPF7 20-189; P29460 23-328); test: SPR (Biacore), sample captured on Protein A, antigen flowed, 1:1 fit
T5 construct: Bought heterodimer
T5 sequence (looked up) 1: T3 sequence (looked up) 1
T5 sequence (looked up) 2: T3 sequence (looked up) 2
Procedure: (§1) A certain amount of test sample was subjected to affinity capture by a biosensor chip Protein A (GE, 29127556), then antigens at a series of concentration gradients were allowed to flow on the surface of the chip. The reaction signals were detected in real time by using Biacore (GE, 8K) to obtain association and dissociation curves. After the dissociation was completed for each cycle, the biochip was washed and regenerated with a 10 mM glycine-hydrochloric acid solution at pH 1.5 (GE, BR-1003-54). The experimental data were fitted using BIAevaluation version 4.1, GE software with a 1:1 model to obtain affinity values. The related antigen proteins used in this assay are as follows: human IL-23 (CT048-H08H, Sino biological), human IL-12 (CT050-H08H, Sino biological), human BAFF (10056-HNCH, Sino biological), human APRIL (5860-AP-010/CF, R&D Systems), cynomolgus monkey p40 (10215-CL, R&D Systems), cynomolgus monkey BAFF (BAF-CM412B, Kactus), cynomolgus monkey APRIL (APR-CM410B, Kactus), mouse BAFF (BAF-M521y, Acro Biosystems), and mouse APRIL (7907-AP/CF, R&D Systems).

[7] = molecular target: T6, human IL-12 (CT050-H08H, Sino biological) (human, UniProt P29459 23-219; P29460 23-328); test: as above
T6 construct: Bought heterodimer
T6 sequence (looked up) 1: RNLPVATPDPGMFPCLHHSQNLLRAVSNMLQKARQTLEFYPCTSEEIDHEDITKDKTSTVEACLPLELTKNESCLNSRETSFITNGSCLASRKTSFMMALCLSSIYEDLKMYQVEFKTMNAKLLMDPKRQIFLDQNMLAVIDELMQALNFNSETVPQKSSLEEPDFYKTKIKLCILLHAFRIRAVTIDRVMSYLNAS
T6 sequence (looked up) 2: T3 sequence (looked up) 2
Procedure: as §1

[8] = molecular target: T7, cynomolgus monkey p40 (10215-CL, R&D Systems) (cynomolgus monkey); test: as above
T7 construct: Bought protein
Procedure: as §1

B1: Ustekinumab (antibody, human IgG1, kappa, V domains shown)
VH: EVQLVQSGAEVKKPGESLKISCKGSGYSFTTYWLGWVRQMPGKGLDWIGIMSPVDSDIRYSPSFQGQVTMSVDKSITTAYLQWNSLKASDTAMYYCARRRPGQGYFDFWGQGTLVTVSS
VL: DIQMTQSPSSLSASVGDRVTITCRASQGISSWLAWYQQKPEKAPKSLIYAASSLQSGVPSRFSGSGSGTDFTLTISSLQPEDFATYYCQQYNIYPYTFGQGTKLEIKR
notes: Control antibody; also called anti-IL-12/IL-23 p40 subunit antibody ustekinumab
- binding result [1]: no binding
- binding result [2]: no binding
- IC50 (nM) for the inhibition of IL-23-induced IL-17 secretion [3]: 2.49 nM
- EC50 [4]: 0.786 nM
- IC50 [5]: 2.08 nM
- Kd [6]: 0.0844 nM
- koff [6]: 0.000107 s⁻¹
- kon [6]: 1.26e+06 M⁻¹ s⁻¹
- Kd [7]: 0.0387 nM
- koff [7]: 0.00018 s⁻¹
- kon [7]: 4.66e+06 M⁻¹ s⁻¹
- Kd [8]: 0.254 nM
- koff [8]: 0.000236 s⁻¹
- kon [8]: 931000 M⁻¹ s⁻¹
